Biological target: human MCU-EMRE fusion protein (hME) (human)

In the case of “MICU1EF (MICU1 with D231A, E242K, D421A, E432K), N-terminally MBP-tagged (from UniProt Q9BPX6 34-476) (natural protein)”, the time constant of the decay of hME Ca2+ current on perfusion of 10 μM MICU1EF is reported as 44 s.

From doi:10.1101/2021.11.15.468501
